Laboratory results taken from article doi:10.1101/463968, “Structure of a bacterial ATP synthase” (bioRxiv, 2018).

Key:
Experiment in all cases: cryo-EM structure; intact Bacillus PS3 ATP synthase in GDN, three rotational states at 2.9, 2.9 and 3.1 Å; focused refinement of the membrane-embedded region at 3.3 Å
[1] = biological target: the molecule itself
[2] = biological target: T1, Bacillus PS3 ATP synthase subunit α (Bacillus PS3, UniProt P09219 1-502); conditions: both partners purified
T1 construct: ATP synthase subunit alpha, Bacillus PS3; three copies in the complex (α3β3γδε ab2c10); Part of the intact complex α3β3γδε ab2c10; also called αDP; source: E. coli strain DK8, plasmid pTR-ASDS; purified as part of the whole ATP synthase (GDN, HisTrap HP, Superose 6)
T1 sequence (P09219 whole entry): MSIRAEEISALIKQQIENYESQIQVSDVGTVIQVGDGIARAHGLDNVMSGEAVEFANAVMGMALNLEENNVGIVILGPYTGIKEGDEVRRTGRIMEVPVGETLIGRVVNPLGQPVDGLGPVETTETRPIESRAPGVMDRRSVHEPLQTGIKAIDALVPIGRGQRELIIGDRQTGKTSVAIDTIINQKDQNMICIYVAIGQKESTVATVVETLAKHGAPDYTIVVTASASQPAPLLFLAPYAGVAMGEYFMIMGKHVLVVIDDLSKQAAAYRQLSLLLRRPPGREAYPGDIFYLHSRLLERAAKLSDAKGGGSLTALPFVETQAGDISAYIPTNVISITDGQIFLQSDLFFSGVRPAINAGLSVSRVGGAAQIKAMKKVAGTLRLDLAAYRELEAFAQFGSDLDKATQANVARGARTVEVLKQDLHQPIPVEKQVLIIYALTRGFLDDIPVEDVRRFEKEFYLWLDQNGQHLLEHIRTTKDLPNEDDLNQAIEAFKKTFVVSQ

[3] = biological target: T2, Bacillus PS3 ATP synthase subunit γ (Bacillus PS3, UniProt P09222 5-286); conditions: both partners purified
T2 construct: ATP synthase subunit gamma, Bacillus PS3; source: E. coli strain DK8, plasmid pTR-ASDS; purified as part of the whole ATP synthase (GDN, HisTrap HP, Superose 6)
T2 sequence (P09222 5-286): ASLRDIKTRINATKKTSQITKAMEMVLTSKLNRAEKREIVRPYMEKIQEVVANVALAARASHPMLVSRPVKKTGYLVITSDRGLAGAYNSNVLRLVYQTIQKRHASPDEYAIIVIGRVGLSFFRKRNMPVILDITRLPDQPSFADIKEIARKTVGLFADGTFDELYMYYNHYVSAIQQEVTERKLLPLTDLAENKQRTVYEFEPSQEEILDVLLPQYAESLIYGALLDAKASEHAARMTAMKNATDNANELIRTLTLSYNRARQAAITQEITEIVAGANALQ

| binding result [2] | binding result [3] | Binder | stoichiometry N [1] |
| --- | --- | --- | --- |
| – | – | Bacillus PS3 ATP synthase subunit c (natural protein, UniProt P00845 1-72, looked up, ATP synthase subunit c, Bacillus PS3; ring of ten copies; also called c-ring; c10; source: E. coli strain DK8, plasmid pTR-ASDS; purified as part of the whole ATP synthase (GDN, HisTrap HP, Superose 6); copies: 10) MSLGVLAAAIAVGLGALGAGIGNGLIVSRTIEGIARQPELRPVLQTTMFIGVALVEALPIIGVVFSFIYLGR | 10 |
| binds | binds | Bacillus PS3 ATP synthase subunit ε (natural protein, UniProt P07678 1-132, looked up, ATP synthase subunit epsilon, Bacillus PS3; source: E. coli strain DK8, plasmid pTR-ASDS; purified as part of the whole ATP synthase (GDN, HisTrap HP, Superose 6)) MKTIHVSVVTPDGPVYEDDVEMVSVKAKSGELGILPGHIPLVAPLEISAARLKKGGKTQYIAVSGGFLEVRPDNVTILAQAAERAEDIDVLRAKARKSGRTPLQSQQDDIDFKRAELALKRAMNRLSVAEMK | – |
